Results on 2 molecules are retold here after article PMC5095618 (Chemico-biological interactions, 2015).

The target of experiment [1] is T1, Human butyrylcholinesterase (Homo sapiens, UniProt P06276). Kind of experiment: SPR. Background: Surface plasmon resonance follows binding to a sensor surface in real time, without labels.
Another experiment addresses human albumin (Homo sapiens, UniProt P02768). Kind of experiment: affinity purification with mass spectrometry.
The target of experiment [2] is T1, Human butyrylcholinesterase. In words: ELISA. For orientation: An ELISA detects its analyte on a solid surface through an enzyme-linked reagent.
For experiment [3] the target is unchanged. In words: BLI.

T1 sequence (P06276 29-602): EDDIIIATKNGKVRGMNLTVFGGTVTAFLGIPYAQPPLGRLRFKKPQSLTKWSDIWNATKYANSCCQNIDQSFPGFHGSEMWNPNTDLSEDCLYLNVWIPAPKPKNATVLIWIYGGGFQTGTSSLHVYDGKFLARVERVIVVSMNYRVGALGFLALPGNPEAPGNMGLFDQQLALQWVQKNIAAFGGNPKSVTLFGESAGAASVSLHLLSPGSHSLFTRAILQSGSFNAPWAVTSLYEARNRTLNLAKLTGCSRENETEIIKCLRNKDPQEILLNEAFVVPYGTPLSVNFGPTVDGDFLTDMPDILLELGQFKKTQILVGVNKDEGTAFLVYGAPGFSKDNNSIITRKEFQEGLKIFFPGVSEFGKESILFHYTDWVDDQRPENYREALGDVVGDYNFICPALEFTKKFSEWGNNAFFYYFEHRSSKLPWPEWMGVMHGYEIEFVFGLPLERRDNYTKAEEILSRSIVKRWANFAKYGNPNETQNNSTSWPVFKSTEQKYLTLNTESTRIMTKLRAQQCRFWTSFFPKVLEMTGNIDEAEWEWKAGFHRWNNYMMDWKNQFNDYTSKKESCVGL
Sequence of human albumin (P02768 25-609): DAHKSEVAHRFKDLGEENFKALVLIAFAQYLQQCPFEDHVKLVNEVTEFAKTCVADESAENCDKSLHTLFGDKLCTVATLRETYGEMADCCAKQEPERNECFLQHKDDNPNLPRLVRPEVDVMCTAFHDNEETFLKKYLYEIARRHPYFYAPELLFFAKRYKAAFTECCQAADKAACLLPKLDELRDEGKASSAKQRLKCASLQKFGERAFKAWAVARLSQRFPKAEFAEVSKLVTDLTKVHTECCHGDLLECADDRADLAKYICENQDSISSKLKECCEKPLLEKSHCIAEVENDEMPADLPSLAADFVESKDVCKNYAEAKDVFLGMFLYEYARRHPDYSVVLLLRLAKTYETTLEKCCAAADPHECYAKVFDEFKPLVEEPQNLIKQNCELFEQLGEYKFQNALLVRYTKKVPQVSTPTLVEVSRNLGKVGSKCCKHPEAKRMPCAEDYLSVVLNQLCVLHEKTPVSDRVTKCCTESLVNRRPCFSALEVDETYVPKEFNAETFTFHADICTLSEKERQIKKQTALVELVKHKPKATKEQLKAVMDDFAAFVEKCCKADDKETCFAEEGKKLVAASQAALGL

B1: mouse anti-HuBChE monoclonal antibody 11D8 (antibody, V domains shown)
VH: QVQLQQSGAELARPGASVKLSCKASGYTFTSQWLQWVKQRPGQGLEWIGAIYPGDGDTRYTQKFKGKATLTADKSSSTAYMQLTNLAPEDSAVYYCARSSMDYWGQGTSVTVSS
VL: DILLTQSPAILSVSPGERVRLSCRASQSCGTSIYWYQQRTNGSPRLLIMYASEPFSGIPSRFSGSGSGTDFTLSINSVESEDIADYYCQQSNSWPWTFGGGTRLEIK
Turning to B1, the Kd (usually the concentration at which binding is half-saturated) in experiment [1] was found to be 900 pM; in experiment [2], 260 pM. Besides, in the experiment with human albumin, the binding result is given as “binds”.

B2: mouse anti-HuBChE monoclonal antibody B2 12-1 (antibody, V domains shown)
VH: EVQLQQSGPELVKPGASVKISCKASGYTFTDYSMHWVKLSHGKSLEWIGYIYPYNDDTDYNQKFKTKATLTVDSSSSITYLELRSLTSEDSAVYYCARSDGYSYYFDYWGQGTTLTVSS
VL: DIVMTQSPATLSVTPGDRVSLSCRASQSISDYLHWYQQKSHESPRLLIKYASQSISGIPSRFSGGGSGSDFTLSINSVEPEDVGVYYCQNGHRFPLTFGAGTKLELK
Turning to B2, the values for the dissociation constant (Kd) in experiment [1] and in experiment [2] were 140 pM and 1410 pM, respectively. In addition, the kon (in general, the second-order rate constant of association) in experiment [3] fell in the range of 800000 to 1.2e+06 M⁻¹ s⁻¹.
